Earlier results in paper PMC5669632.

Legend:
His25 = His25 (UniProt position 25, HGSALHWRAAG); experiment: electrophysiology; conditions: not stated for the quoted data (the present recordings are said to follow the same earlier protocols)
Glu118 = Glu118 (UniProt position 118, WFVGREQERRG); experiment: electrophysiology; conditions: not stated for the quoted data (the present recordings are said to follow the same earlier protocols)
[1] = closed channel state (model parameter pKa closed)
[2] = open channel state (model parameter pKa open)

Substance	pKa (His25; [1])	pKa (His25; [2])	pKa (Glu118; [1])	pKa (Glu118; [2])
KcsA potassium channel, E71A (non-inactivating control channel) (Streptomyces lividans; E71A)	4.8 (N/A)	7.6		
KcsA potassium channel, H25R/E71A (Streptomyces lividans; H25R;E71A)			5.0 (0.1)	6.2 (0.1)
